We go through three substances from article PMC7343240.

The target of assay [1] is IGF-1Rzip (leucine-zipper-stabilized human IGF-1R ectodomain) (human | Saccharomyces cerevisiae). Put plainly: cryo-EM structure; IGF-1Rzip mixed with IGF-II at a molar ratio of 1 to 1.5 (receptor homodimer to ligand) in TBSA (24.8 mM Tris-HCl pH 8.0, 137 mM NaCl, 2.7 mM KCl, 0.02% azide); single-particle reconstruction; open-leg and closed-leg 3D classes.
For assay [2] the target is unchanged. Description: europium time-resolved fluorescence competition binding assay (immunocapture); IGF-1Rzip (0.5 μg per well) captured on a plate coated with 24-31 anti-human IGF-1R antibody; Eu-IGF-I or Eu-IGF-II (~100,000 counts) with increasing concentrations of unlabelled IGF-I or IGF-II; 16 h at 4°C; one-site fit.
In assay [3] the target is holoIGF-1R (IGF-1R holoreceptor solubilized from P6 cells) (human) (UniProt P08069). Put plainly: europium time-resolved fluorescence competition binding assay (immunocapture); IGF-1R solubilized from P6 cells (100 μl lysate per well) captured on a plate coated with 24-31 anti-human IGF-1R antibody; Eu-IGF-I or Eu-IGF-II (~100,000 counts) with increasing concentrations of unlabelled IGF-I or IGF-II; 16 h at 4°C; one-site fit.

With “"Receptor grade" IGF-II (GroPep) (ligand)”, the stoichiometry N (IGF-II per receptor homodimer) in assay [1] came to 1.

With “human insulin-like growth factor I (IGF-I) (from UniProt P05019 49-118) (ligand)”, the IC50 in assay [2] is 0.39 nM.

As to “human insulin-like growth factor II (IGF-II), of Francis et al., 1993 (ligand)”, the figures for the IC50 in assay [3] and in assay [2] were 0.85 nM and 1.24 nM, respectively.

For orientation: IC50 means the concentration that inhibits the measured activity by half. The low end stands for greater potency, the high end for weaker potency.
